Results as given in publication PMC8892516, “Intragenic suppressors unravel the role of the SCREAM ACT-like domain for bHLH partner selectivity in stomatal development” (Proceedings of the National Academy of Sciences of the …, 2022).
Numbering of substitutions follows the chain as printed. Values belong to the binder of their own block, whether it stands above or below them.

Tests used:
Details in all cases: both partners purified
SPCH-ACTL (285-364) = biological target: T1, SPCH-ACTL (285-364) (Arabidopsis thaliana, UniProt Q700C7 285-364); experiment: ITC; Malvern PEAQ-ITC; 150 µM SCRM ACTL/SCRM L484F ACTL injected into 15 µM SPCH ACTL/MUTE ACTL; PBS, pH 7.2 (Table S3; methods: pH 7.4); 25 °C; means of two experiments
T1 construct: also called SPCH ACTL domain; source: E. coli BL21, purified (glutathione resin, thrombin, Superdex-200); not shown: GST, N-terminal, cleaved
T1 sequence (looked up): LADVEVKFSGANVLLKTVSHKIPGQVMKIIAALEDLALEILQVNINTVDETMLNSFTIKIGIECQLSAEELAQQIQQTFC

MUTE-ACTL (114-202) = biological target: T2, MUTE-ACTL (114-202) (Arabidopsis thaliana, UniProt Q9M8K6 114-202); experiment: as above
T2 construct: MUTE, Arabidopsis thaliana, C-terminal ACT-like domain, residues 114-202; also called MUTE ACTL domain; source: E. coli BL21, purified (glutathione resin, thrombin, Superdex-200); not shown: GST, N-terminal, cleaved
T2 sequence (looked up): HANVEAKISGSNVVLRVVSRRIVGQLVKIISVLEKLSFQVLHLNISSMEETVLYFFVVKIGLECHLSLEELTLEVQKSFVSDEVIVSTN

SCRM ACTL (405-494) = biological target: T3, SCRM ACTL (405-494) (Arabidopsis thaliana, UniProt Q9LSE2 405-494); experiment: ITC; Malvern PEAQ-ITC, 25 °C, PBS pH 7.4; 150 μM SCRM ACTL/SCRM L484F ACTL injected into 15 μM SPCH ACTL/MUTE ACTL
T3 construct: SCREAM (SCRM, ICE1), Arabidopsis thaliana, At3G26744, ACT-like domain, residues 405-494; also called SCRM ACTL domain; source: E. coli BL21, purified (glutathione resin, thrombin, Superdex-200); not shown: GST, N-terminal, cleaved
T3 sequence (looked up): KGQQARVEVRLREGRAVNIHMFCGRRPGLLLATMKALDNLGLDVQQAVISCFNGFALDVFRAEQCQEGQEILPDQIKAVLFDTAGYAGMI

[1] = biological target: T4, SCRM ACTL_(L484F) (405-494) (Arabidopsis thaliana, UniProt Q9LSE2 405-494, L484F); experiment: as above
T4 construct: SCREAM (SCRM, ICE1), Arabidopsis thaliana, At3G26744, ACT-like domain, residues 405-494, L484F (printed L485F in the methods); results, legends and the ITC methods print L484F; the cloning, CD and modelling methods print L485F; also called SCRM-ACTL_(L485F); SCRM L484F ACTL; source: E. coli BL21, purified (glutathione resin, thrombin, Superdex-200); not shown: GST, N-terminal, cleaved
T4 sequence (looked up): T3 sequence (looked up) with L80F

SPCH (ΔNSPCH, 98-364) = biological target: T5, SPCH (ΔNSPCH, 98-364) (Arabidopsis thaliana, UniProt Q700C7 98-364); experiment: ITC; Malvern PEAQ-ITC; 40 µM SCRM/SCRMΔC injected into 4 µM SPCH/MUTE/FAMA; PBS, pH 7.2 (Table S1; methods: pH 7.4); 25 °C; single binding site model; means of two experiments
T5 construct: the only recombinant SPCH with bHLH domain that the methods list is ΔNSPCH (98-364); source: E. coli BL21, purified (glutathione resin, thrombin, Superdex-200); not shown: GST, N-terminal, cleaved
T5 sequence (looked up): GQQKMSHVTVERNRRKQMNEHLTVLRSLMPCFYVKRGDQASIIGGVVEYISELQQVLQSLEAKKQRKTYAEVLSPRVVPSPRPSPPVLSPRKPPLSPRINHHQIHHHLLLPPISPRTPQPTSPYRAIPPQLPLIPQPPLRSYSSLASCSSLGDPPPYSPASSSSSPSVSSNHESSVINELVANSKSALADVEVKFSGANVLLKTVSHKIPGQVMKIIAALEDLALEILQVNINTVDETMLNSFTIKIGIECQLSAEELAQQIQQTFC

MUTE (1-202) = biological target: T6, MUTE (1-202) (Arabidopsis thaliana, UniProt Q9M8K6 1-202); experiment: as above
T6 construct: MUTE, Arabidopsis thaliana, residues 1-202; MUTE (1-202) was made both as a GST fusion (pGEX-4T-1, thrombin-cleavable) and with an N-terminal His tag (pET28a); also called MUTE-HIS; MUTE-histag; source: E. coli BL21, purified (Ni-NTA or glutathione resin, Superdex-200)
T6 sequence (looked up): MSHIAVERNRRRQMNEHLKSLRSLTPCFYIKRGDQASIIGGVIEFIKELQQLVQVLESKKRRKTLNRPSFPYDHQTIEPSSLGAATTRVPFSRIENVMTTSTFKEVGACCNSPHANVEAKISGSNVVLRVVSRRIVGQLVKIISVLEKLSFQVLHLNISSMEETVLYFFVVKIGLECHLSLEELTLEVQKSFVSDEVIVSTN

FAMA (ΔNFAMA) = biological target: T7, FAMA (ΔNFAMA) (Arabidopsis thaliana, Limits not printed. Start set by analogy with the printed ΔNSPCH 98-364 (one residue before the annotated bHLH). Runs to the native C-terminus. Tag or fusion carrier omitted.); experiment: as above
T7 chain: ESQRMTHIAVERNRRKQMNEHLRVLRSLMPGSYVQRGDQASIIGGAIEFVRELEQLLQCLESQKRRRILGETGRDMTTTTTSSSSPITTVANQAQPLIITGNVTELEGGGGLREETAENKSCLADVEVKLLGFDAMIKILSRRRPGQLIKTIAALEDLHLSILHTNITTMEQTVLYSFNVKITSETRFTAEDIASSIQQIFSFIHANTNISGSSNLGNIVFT

ΔNFAMA, recombinant = biological target: T8, ΔNFAMA, recombinant (Arabidopsis thaliana, Limits not printed. Start set by analogy with the printed ΔNSPCH 98-364, which starts one residue before its annotated bHLH (99); FAMA bHLH is 194-245. Runs to the native C-terminus, including the ACT); experiment: ITC; Malvern PEAQ-ITC, 25 °C, PBS pH 7.4; 40 μM SCRM/SCRMΔC injected into 4 μM SPCH/MUTE/FAMA; single binding site model
T8 chain: T7 chain

[2] = biological target: T9, ΔNSPCH (98-364), recombinant (Arabidopsis thaliana, UniProt Q700C7 98-364); experiment: as above
T9 construct: BLI and ITC name it only SPCH; ΔNSPCH (98-364) is the only long recombinant SPCH construct that the methods list; also called purified SPCH; source: E. coli BL21, purified (glutathione resin, thrombin, Superdex-200); not shown: GST, N-terminal, cleaved
T9 sequence (looked up): T5 sequence (looked up)

[3] = biological target: T10, MUTE (1-202), recombinant (Arabidopsis thaliana, UniProt Q9M8K6 1-202); experiment: as above
T10 construct: MUTE, Arabidopsis thaliana, residues 1-202; MUTE (1-202) was cloned both in pGEX-4T-1 (N-terminal GST, thrombin cleaved) and in pET28a (N-terminal His tag); also called purified MUTE; MUTE-HIS; source: E. coli BL21, purified (Ni-NTA, Superdex-200)
T10 sequence (looked up): T6 sequence (looked up)

stoichiometry N (SPCH-ACTL (285-364)): 0.95 | stoichiometry N (MUTE-ACTL (114-202)): 0.95
B1: SCRM ACTL (405-494) (domain or fragment, Arabidopsis thaliana, UniProt Q9LSE2 405-494, looked up)
chain: T3 sequence (looked up)
notes: SCREAM (SCRM, ICE1), Arabidopsis thaliana, At3G26744, C-terminal ACT-like domain, residues 405-494; also called SCRM ACTL domain; source: E. coli BL21, purified (glutathione resin, Superdex-200)

Kd (SCRM ACTL (405-494)): 1200 nM | Kd [1]: 1700 nM
B2: SPCH-ACTL (285-364) (domain or fragment, Arabidopsis thaliana, UniProt Q700C7 285-364, looked up)
chain: T1 sequence (looked up)
notes: source: E. coli BL21, purified (glutathione resin, thrombin, Superdex-200); not shown: GST, N-terminal, cleaved

stoichiometry N (SPCH (ΔNSPCH, 98-364)): 1.02 | stoichiometry N (MUTE (1-202)): 1.03 | stoichiometry N (FAMA (ΔNFAMA)): 0.91
B3: SCRM (1-494), GST removed (natural protein, Arabidopsis thaliana, UniProt Q9LSE2 1-494, looked up)
chain: MGLDGNNGGGVWLNGGGGEREENEEGSWGRNQEDGSSQFKPMLEGDWFSSNQPHPQDLQMLQNQPDFRYFGGFPFNPNDNLLLQHSIDSSSSCSPSQAFSLDPSQQNQFLSTNNNKGCLLNVPSSANPFDNAFEFGSESGFLNQIHAPISMGFGSLTQLGNRDLSSVPDFLSARSLLAPESNNNNTMLCGGFTAPLELEGFGSPANGGFVGNRAKVLKPLEVLASSGAQPTLFQKRAAMRQSSGSKMGNSESSGMRRFSDDGDMDETGIEVSGLNYESDEINESGKAAESVQIGGGGKGKKKGMPAKNLMAERRRRKKLNDRLYMLRSVVPKISKMDRASILGDAIDYLKELLQRINDLHNELESTPPGSLPPTSSSFHPLTPTPQTLSCRVKEELCPSSLPSPKGQQARVEVRLREGRAVNIHMFCGRRPGLLLATMKALDNLGLDVQQAVISCFNGFALDVFRAEQCQEGQEILPDQIKAVLFDTAGYAGMI
notes: SCREAM (SCRM, ICE1), Arabidopsis thaliana, At3G26744, residues 1-494; Used for ITC; the methods tell thrombin cleavage of the GST-fused proteins in general, not for ITC by name; also called SCREAM; ICE1; source: E. coli BL21, purified (glutathione resin, thrombin, Superdex-200); not shown: GST, N-terminal, cleaved

stoichiometry N (ΔNFAMA, recombinant): 1 | stoichiometry N [2]: 1 | stoichiometry N [3]: 1
B4: SCRM (1-494), recombinant (natural protein, Arabidopsis thaliana, UniProt Q9LSE2 1-494, looked up)
chain: B3 chain
notes: SCREAM (SCRM, ICE1), Arabidopsis thaliana, At3G26744, residues 1-494; the purification methods tell thrombin cleavage; source: E. coli BL21, purified (glutathione resin, thrombin, Superdex-200); not shown: GST, N-terminal, cleaved
